These results are taken from publication PMC9282385, “Rapid self-test of unprocessed viruses of SARS-CoV-2 and its variants in saliva by portable wireless graphene biosensor”.

The target in series [1] is SARS-CoV nucleocapsid protein (SARS-CoV, UniProt P59595 1-422). In words: […], room temperature; pH not stated. The settings on record: protein: commercial; chain copies: 2.
The target in a further series is SARS-CoV-2 spike RBD (SARS-CoV-2, UniProt P0DTC2 319-541).
The next series addresses SARS-CoV spike RBD (SARS-CoV, UniProt P59594 306-527). In words: […], room temperature; pH not stated. Particulars: protein: commercial.

Sequence of SARS-CoV nucleocapsid protein (P59595 whole entry): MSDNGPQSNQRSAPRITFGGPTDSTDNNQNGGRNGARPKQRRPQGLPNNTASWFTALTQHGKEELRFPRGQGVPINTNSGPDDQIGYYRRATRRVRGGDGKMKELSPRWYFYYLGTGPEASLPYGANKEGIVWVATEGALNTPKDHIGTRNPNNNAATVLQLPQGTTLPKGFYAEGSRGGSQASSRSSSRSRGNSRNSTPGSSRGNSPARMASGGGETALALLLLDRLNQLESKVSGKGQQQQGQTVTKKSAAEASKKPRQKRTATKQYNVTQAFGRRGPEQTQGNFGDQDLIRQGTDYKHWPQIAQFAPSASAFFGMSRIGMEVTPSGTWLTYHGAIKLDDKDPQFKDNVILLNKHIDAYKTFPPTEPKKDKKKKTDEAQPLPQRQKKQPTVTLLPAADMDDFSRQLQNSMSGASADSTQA

B1: Aptamer-N (structured_DNA)
DNA: GCTGGATGTCGCTTACGACAATATTCCTTAGGGGCACCGCTACATTGACACATCCAGC
As for B1, the binding result in series [1] is “binds”.

B2: Aptamer-S (structured_DNA)
DNA: CAGCACCGACCTTGTGCTTTGGGAGTGCTGGTCCAAGGGCGTTAATGGACA
In the case of B2, the binding result with SARS-CoV-2 spike RBD and in the series with SARS-CoV spike RBD was “binds” throughout.
